Article PMC7709199, “Homogeneously N-glycosylated proteins derived from the GlycoDelete HEK293 cell line enable diffraction-quality crystallogenesis” (Acta Crystallographica. Section D, Structural Biology, 2020)

Key:
[1] = X-ray diffraction of CSF-1 complex crystals; conditions: glycan changed form; control: HEK293T-expressed receptor
[2] = X-ray diffraction; conditions: glycan changed form; control: HEK293T-expressed protein
[3] = achievable concentration for crystal screens; conditions: glycan lost; control: undigested HEK293S MGAT1−/− material
[4] = initial expression tests; conditions: glycan lost; control: other CSF-1RD1–D3 constructs
[5] = achievable concentration of CSF-1 complex; conditions: glycan changed form; control: wild-type (HEK293T) material
[6] = target: the molecule itself; experiment: crystal structure; DSCAM_(Ig7–Ig9) from HEK293 GlycoDelete cells; space group C2, one molecule in the asymmetric unit, oligomer by crystallographic symmetry; 0.2 M calcium acetate, 10% PEG 8000, 0.1 M HEPES pH 7.5, 3% glycerol; 1.85 Å
[7] = target: the molecule itself; experiment: SEC; size-exclusion chromatography of IMAC-purified murine IL-12B from GD cells

Molecule: colony-stimulating factor 1 receptor (CSF-1RD1–D3): HEK293S MGAT1−/− expression
- other: crystal diffraction quality, other: diffraction limit [1]: increases, 4.5 vs did not diffract

Molecule: Down syndrome cell-adhesion molecule (DSCAMIg7–Ig9): GlycoDelete expression
- other: crystal diffraction quality, other: diffraction limit [2]: increases, 1.85 vs ∼8

Molecule: colony-stimulating factor 1 receptor (CSF-1RD1–D3): EndoH digestion
- other: solubility [3]: decreases

Molecule: colony-stimulating factor 1 receptor (CSF-1RD1–D3): N240Q
- expression_or_secretion [4]: no change

Molecule: colony-stimulating factor 1 receptor (CSF-1RD1–D3): N153Q
- expression_or_secretion [4]: no change

Molecule: colony-stimulating factor 1 receptor (CSF-1RD1–D3): N73Q
- expression_or_secretion [4]: abolishes

Molecule: colony-stimulating factor 1 receptor (CSF-1RD1–D3): GlycoDelete expression
- other: solubility [5]: no change

Molecule: colony-stimulating factor 1 receptor (CSF-1RD1–D3): N275Q
- expression_or_secretion [4]: no change

B1: human Down syndrome cell-adhesion molecule fragment DSCAM_(Ig7–Ig9) (domain or fragment)
chain: TVPPFIQPFEFPRFSIGQRVFIPCVVVSGDLPITITWQKDGRPIPGSLGVTIDNIDFTSSLRISNLSLMHNGNYTCIARNEAAAVEHQSQLIVRVPPKFVVQPRDQDGIYGKAVILNCSAEGYPVPTIVWKFSKGAGVPQFQPIALNGRIQVLSNGSLLIKHVVEEDSGYYLCKVSNDVGADVSKSMYLTVKIPAMITSYPNTTLATQGQKKEMSCTAHGEKPIIVRWEKEDRIINPEMARYLVSTKEVGEEVISTLQILPTVREDSGFFSCHAINSYGEDRGIIQLTVQEE
modifications: GlycoDelete N-glycan stubs at Asn666, Asn710, Asn748 and Asn795 (full Neu5AcGalGlcNAc at Asn795)
notes: one-residue cloning scar (Thr594) at the N-terminus; Down syndrome cell-adhesion molecule (DSCAM), human, UniProt O60469, residues 595–884 (Val595–Glu884), immunoglobulin domains Ig7, Ig8 and Ig9; one-residue cloning scar (Glu885) before the C-terminal 6×His tag; Expressed from pXLG behind a 34-residue signal peptide of pregnancy-specific glycoprotein 1 (UniProt P11464); The signal peptide is not …
- binding result [6]: binds

B2: murine IL-12B (natural protein, UniProt P43432 23-335, looked up)
chain: MWELEKDVYVVEVDWTPDAPGETVNLTCDTPEEDDITWTSDQRHGVIGSGKTLTITVKEFLDAGQYTCHKGGETLSHSHLLLHKKENGIWSTEILKNFKNKTFLKCEAPNYSGRFTCSWLVQRNMDLKFNIKSSSSSPDSRAVTCGMASLSAEKVTLDQRDYEKYSVSCQEDVTCPTAEETLPIELALEARQQNKYENYSTSFFIRDIIKPDPPKNLQMKPLKNSQVEVSWEYPDSWSTPHSYFSLKFFVRIQRKKEKMKETEEGCNQKGAFLVEKTSTEVQCKGGNVCVQAQDRYYNSSCSKWACVPCRVRS
modifications: immature N-linked glycan on Asn220 (modelled as Man4GlcNAc2)
notes: signal peptide in the construct; The dimeric SEC fractions (disulfide-linked homodimer through Cys197) were pooled, polished on Mono Q and crystallised; also called IL-12p40 (monomer); IL-12p80 (homodimer); source: HEK293 GlycoDelete cells, transfected, secreted; purified (IMAC, SEC, Mono Q anion exchange)
- stoichiometry N [7]: 2
